Data from PMC10311464.

Biological target: hnRNP D0 isoform 3, Myc-DDK-tagged (Origene RC200660) (UniProt Q14103-3 1-306)
Test: EMSA

B1: rs678849 T allele probe (dsDNA)
DNA 1: TCAAAAGTACCTGCT
DNA 2: AGCAGGTACTTTTGA
B1: binds.
